Measurements taken from the nanobody polyreactivity screen of Harvey et al. (2022).

Assay: yeast display, Sf9 membrane polyspecificity reagent, FACS + sequencing; frameworks hold sequencing errors
In short: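 Genes from sorted yeast were amplified by colony PCR, read by MiSeq 2 × 250 sequencing and filtered on CDR length. These cells carried a synthetic nanobody library in Saccharomyces cerevisiae BJ5465 and were sorted by FACS into low and high (top ~1%) gates on anti-HA and streptavidin fluorescence. Polyreactivity is labelled according to the gate of origin.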

Sequence	polyreactivity (PSR sort gate)
QVQLVESGGGLVQAGGSLRLSCAASGRIFDGYAMGWYRQAPGQERELVAAISSRGGRTYYADSVKGRFTISRDHAKNTVYLQMNSLKPEDTAVYYCAADDPYGEGDYWGQGTQVTVSS	low polyreactivity
QVQLVESGGGLVQAGGSLRLSCAASGFTLYVYDMGWYRQAHGKERELVAAINGGGSTNYADSVKGRFTISRDNAKNTVYLQMNSLKPEDTAVYYCAAEDAYGRDVYYGSDYWGQGTLVTVSS	low polyreactivity
QVQLVESGGGLVQAGGRLRLSCAASGRIFGWIAMGWSRQAPGKDRELVAAISADGNTYSADSVKGRFTISRDNAKNTVYVQKNSLKPEDTAVSYCAAESWSADFSWYDYWGQGTQVTVSS	high polyreactivity
QVQLVESGGGLVQAGGSLRLSCAASGSIFTYYAMGWYRQAPGKERELVAAISWSGGSTYYADSVKGRFTISRDNAKNTVYLQMNSLKPEDTAVYYCAAGRFYKWSRYQEYDYWGQGTQVTVSS	low polyreactivity
QVQLVESGGGLVQAGGSLRLSCAASGSIFGYYAMGWYRQAPGKERELVASITRSGGSTYYADSVKGRFTISRDNAKNTVYLQMNSLQPEDTAVYYCAVARYRHGRSGTYDVTGEYWGQGTQVTVSS	high polyreactivity
QVQLVESGGGLVQAGGSLRLSCAASASTFGAYAMGWYRQAPGKERELVAAITESGDNTYYADSVKGRFTISRDNAKNTVYLQMNSLKPEDTAVFYCAADDGYSTYEYWGQGTQVTVSS	low polyreactivity
QVQLVESGGGLVQAGGSLRLSCAASGRTFTYYGKGWYRQAPGKERELVAAITERGDSTYYADSVKGRFTISRDNAKNTVYLQMNSLKPEDTAVYYCAAAEHLTRPTSPTQDGDHWGQGTQVTVSS	low polyreactivity
QVQLVESGGGLVQAGGSLRLSCDASGRTFRFNDGGWYRQAPVKERELVAAITYRGGSTYYPDSVKGRFTISRDNAKNTVYLQMNSLKPDDTAVYYCAADYFWSRTQEFDYWGQGSQVTVSS	high polyreactivity
QVQLVESGGGLVQAGGSLRLSCAASGFTFYLYAMGWYRQAPGKEREFVASISYRGTSTYYADSVKGRCTISRDNAKNTVYLQMNSLKPEDTAFYYCAARPSYYRTGYGYWGQGTQVTVSS	high polyreactivity
QVQLVESGGGLVQAGGSLRLSCAASGSTFYYNAMGWYRQAPGKERELVAAITWGGGSTYYADSVKGRFTISRDNAKNTVYLQMNSLKPEDTAVYYCNAEDYVWYYYYYDIYDYWGQGTQVTVSS	high polyreactivity
QVQLVESGGGLVQAGGSLRLSCAASGSTFVRNAMGWYRQAPGKERELVAAIRWRSGSTYYADSVKGRFTISRDNAKNTVYLQMNSLKPEDTAVYYCAVDYNSFRYGPLGYWGQGTQVTVSS	high polyreactivity
QVQLVESGGGLVQAGRSLRLICAASGSIFRKYAMCWYRQAPVKESELVAAINYSGGNTYYADSVKGRFTISRDNSKNTVYLQMNSLKPEDTAVYFCAADSVRHYWWAYYYWGQVTQVTVSS	low polyreactivity
QVQHVESAGGLVQAGGSLRLSCPASGRTINRNAMGWYRQAPGKERELVAAISWSGGRTYYADSVKGRFTISRDTAKNTVYLQMTSLKPEDTAVFSCAAPGNKYWGQGTQVTVSS	high polyreactivity
QVQLVESGGGLVQAGGSLRLSCAASGSIFYTYTMGWYRQAPGKERELVAAISRGGRTYYADSVKGRFTISRDNAKNTVYLQMNSLKPEDTAVYYCAAYGYGSWGQGTQVTVSS	high polyreactivity
QVQLVESGGGLVQARGSLRLSCASSGFIFSRYAMGWYRQAPGKESELVAAITSGGSTYYADSVKGRFTISRDNAKNTVYLQMNSLKPEDTAVYYCNVVSKSRISQYVGYSYDYWGQGTQVTVSS	high polyreactivity
QFQLVESGGGLVQAGGSLRLSCAASGFIFSNYAMGWYRQAPGKERELVASISWGGGSTYYADSVKGRFTISRDNAKNTVYLQMNSLKPEDTAVYYCATVRSLYSYDYWGQGTQVTVSS	high polyreactivity
QVQLVESGGGLVQAGGSLRLSCAASGRTFQYYAMGWYRQAPGKERELVATISYSGGSTSYADSVKGRFTISRDNAKNTVYLQMNSLKPEDTAVYYCAADYYYGDALSPYYPHWDFYYWGQGTQVTVSS	low polyreactivity
QVQLVESGGGLVQAGGSLRLSCAASGSIFVLNAMGWYRQAPGKEWELVAVISNIGGRTYYADSVKGRFTISRDNAKNTVYLQLNSLKPEDTAVYSCAAPFTSTFDYWGQVTQVTVSS	low polyreactivity
QVQLGESGGGLVQAGGSLRLSCAASGFTFDVNAMGWYRQATGKERELFAGITTSDGSTYYADSVKGRFTISRDNAKNTVYLQMNSLQPEDTAVYYCAAAITWYQLYQRSGGDYWGQGTQVTVSS	low polyreactivity
QVQLVESGGGLVQAGGSLRLSCAASGSTFLSNAMGWYRPAPGKERELVAGIDYNDGSTYYADSVKGRFTISRDNAKNTVYLQMNSLKPEDTAVYYCAARWVFRRYVIGMDYWGQGTQVTVSS	low polyreactivity
QVQLVESGGGLVQAGGSLRLSCAASGRILYQYDMGWYRQAPGKERELVASISRSGGRTYYADSVKGRFTISRDNAKNTVYLQMNSLNPEDTAVYYCAAELTYFGYPIDFDSWGQGTQVSVSS	low polyreactivity
QVQLVESGGGLVQAGGSLRLSCAASGRTFYYYTMGWYRPAPGKERELVAAISSTGNTYYADSVKGRFTISRDNAKNTVYLQMNSLKPEDTAVYYCAALRYVNLLAQAYEYWGQGTQVTVSS	high polyreactivity
